# Measurements: patent US20210024635A1 (IMMATICS BIOTECHNOLOGIES, published 2021)
# Where a chain is given by its changes, count along the chain named.
# B1: Elfu (IgG1) (antibody, V domains shown)
# VH: EVQLVQSGAEVKKPGESLKISCKGSGYSFTSYWISWVRQMPGKGLEWMGIIYPGTSYTRYSPSFQGQVTISADKSISTAYLQWSSLKASDTAMYYCARGYHLPYFDYWGQGTLVTVSS
# VL: QSVLTQPPSVSGAPGQRVTISCTGSSSNIGAGYDVHWYQQLPGTAPKLLIYGNSNRPSGVPDRFSGSKSGTSASLAITGLQAEDEADYYCQAYASPTRVVFGGGTKLTVLG
# B2: Bibi (IgG1) (antibody, V domains shown)
# VH: EVQLVESGGGLVKPGGSLRLSCAASGFTFSSYSMNWVRQAPGKGLEWVSSISSSSSYIYYADSVKGRFTISRDNAKNSLYLQMNSLRAEDTAVYYCARTESVWHLGFDIWGQGTLVTVSS
# VL: DIQMTQSPSSVSASVGDRVTITCRASQGISSWLAWYQQKPGKAPKLLIYAASSLQSGVPSRFSGSGSGTDFTLTISSLQPEDFATYYCQQNHKYPITFGQGTKVEIKR
# B3: Cyprus (IgG1) (antibody, V domains shown)
# VH: QVQLVESGGGLVKPGGSLRLSCAASGFTFSDYYMSWIRQAPGKGLEWVSYISSSGSTIYYADSVKGRFTISRDNAKNSLYLQMNSLRAEDTAVYYCARDGLRYFYGFDYWGQGTLVTVSS
# VL: QSVLTQPPSVSAAPGQKVTISCSGSSSNIGNNYVSWYQQLPGTAPKLLIYDNNKRPSGIPDRFSGSKSGTSATLGITGLQTEDEADYYCQAWVHYSLVHWVFGGGTKLTVLG
# B4: Daniel (IgG1) (antibody, V domains shown)
# VH: QVQLVQSGAEVKKPGASVKVSCKASGYTFTSYYMHWVRQAPGQGLEWMGIINPSGGSTSYAQKFQGRVTMTRDTSTSTVYMELSSLRSEDTAVYYCAREGYTPGGSYTFDIWGQGTLVTVSS
# VL: B3 VL with Q90G, A91S, V93D, H94G, Y95F, S96V, L97S, V98S, H99Y, W100S
# B5: Fiwi (IgG1) (antibody, V domains shown)
# VH: EVQLVESGGGLVKPGGSLRLSCAASGFTFSNYWISWVRQAPGKGLEWVGRIKSKTYGGTTDYAEPVKGRFTISRDDSKNTLYLQMNSLKTEDTAVYYCARGRYPELGYFDLWGQGTLVTVSS
# VL: B3 VL with Q90G, V93D, H94S, S96L, L97S, H99S, W100F
# B6: Aali (IgG1) (antibody, V domains shown)
# VH: QVQLVESGGGLVKPGGSLRLSCAASGFTFSDHYISWIRQAPGKGLEWVSYISSSGSTTYYAESVKGRFTISRDNAKNSLYLQMNSLRAEDTAVYYCARTYAYRYDFDLWGQGTLVTVSS
# VL: QSVLTQPPSVSGAPGQRVTISCTGSSSNIGAGYDVHWYQQLPGTAPKLLIYGNSNRPSGVPDRFSGSKSGTSASLAITGLQAEDEADYYCQTWVHSYSTPVFGGGTKLTVLG
# B7: Daniel (Fab) (Fab, V domains shown)
# VH: B4 VH
# VL: B3 VL with Q90G, A91S, V93D, H94G, Y95F, S96V, L97S, V98S, H99Y, W100S
# notes: Tested in monovalent Fab format
# B8: Cyprus (Fab) (Fab, V domains shown)
# VH: B3 VH
# VL: B3 VL
# notes: as for B7
# B9: Fiwi (Fab) (Fab, V domains shown)
# VH: B5 VH
# VL: B3 VL with Q90G, V93D, H94S, S96L, L97S, H99S, W100F
# notes: as for B7
# B10: Aali (Fab) (Fab, V domains shown)
# VH: B6 VH
# VL: B6 VL
# notes: Tested in monovalent Fab format; also called Aali Fab fragment
# Target: T1, WT1 RMF peptide/HLA-A0201 complex (isolated, recombinant, biotinylated) (human)
# Experiment: ELISA on Neutravidin plates, IgG
row,EC50,Binder
1,< 1 nM,B1
2,< 1 nM,B2

# Target: T2, WT1 RMF peptide/HLA-A0201 complex (isolated, recombinant, biotinylated) (human)
# T2 construct: also called RMF/HLA; RMF/HLA complex
# Experiment: ELISA on Neutravidin plates, IgG
row,EC50,Binder
1,< 1 nM,B3
2,< 1 nM,B4
3,< 1 nM,B5
4,< 1 nM,B6

# Target: T2, WT1 RMF peptide/HLA-A0201 complex …
# Experiment: ELISA on Neutravidin plates, Fab; EC50 compared with the best reference Fab (not named)
# Protocol: The binders were subjected to an in-depth characterization. They were directly compared to the antibodies of the prior art in an ELISA assay using Neutravidin plates as described in Example 3. For selected reference antibodies and binders of the present invention, the EC50 were determined.
# Furthermore, none of the binders of the present invention show any binding to the counter targets, in particular no binding to the PIGQ/HLA complex.
row,fold better EC50 than the best binder of the prior art,Binder
1,≥ 3.3 fold,B7
2,≥ 3.3 fold,B8
3,≥ 3.3 fold,B9
4,≥ 3.3 fold,B10

# Target: T3, PIGQ peptide/HLA-A0201 complex (human, biotinylated (site not stated))
# T3 construct: Negative control / counter target complex; also called PIGQ/HLA; PIGQ/HLA complex
# Experiment: ELISA as in Example 3; biotinylated peptide/HLA complex coated at 50 nM on Neutravidin plates, IgG titrated, AP-conjugated goat anti-human IgG, RFU
row,binding result,Binder
1,no binding,B1
2,no binding,B3
3,no binding,B4
4,no binding,B5
5,no binding,B6
6,no binding,B2

# Target: T4, RMF/HLA complex on antigen-positive cancer cells (SET2, BV173) (human)
# T4 construct: whole, on cells; Naturally presented complex on SET2 (DSMZ ACC 608) and BV173 (DSMZ ACC 20) cells; also called RMF/HLA complex on cells; WT1/HLA-expressing cells
# Experiment: flow cytometry on SET2 cells, IgG; '++' = EC50 below 10 nM, '+' = EC50 of more than 10 nM
# Protocol: (§1) SET2 cells (DSMZ No. ACC 608) and BV173 cells (DSMZ No. ACC 20) were used as antigen-positive cancer cells (see Dao et al.; 2013). Binding was measured by flow cytometry utilizing a PE-conjugated goat anti-human IgG secondary antibody, and EC50 values were determined.
# (§2) Example 4 was repeated with the antibodies of the present disclosure, i.e. binding to RNF/HLA-positive SET2 cells (DSMZ No. ACC 608) and BV173 cells (DSMZ No. ACC 20) was tested by flow cytometry. EC50 values were determined.
row,EC50,Binder
1,> 10 nM,B1
2,> 10 nM,B3
3,< 10 nM,B4
4,> 10 nM,B5
5,< 10 nM,B6
6,> 10 nM,B2

# Target: T2, WT1 RMF peptide/HLA-A0201 complex …
# Experiment: Octet (BLI), Fab, antigen immobilized to Streptavidin
# Protocol: Affinities of the Fab fragments of binders Aali and Refmab #13 for the antigen RMF/HLA were also measured with an Octet system using the antigen immobilized to Streptavidin.
row,Kd,Binder
1,66 nM,B10

# Target: T2, WT1 RMF peptide/HLA-A0201 complex …
# Experiment: Octet (BLI), IgG, apparent (bivalent) affinity; dissociation too slow for the limits of the system
# Protocol: The apparent affinity of the binders Aali and Refmab #13 was measured for the RMF/HLA antigen with an Octet system. […] The binding of Aali was characterized by a very slow dissociation rate, which exceeded the specification limits that were set in the system.
row,Kd,Binder
1,< 0.5 nM,B6

# Target: T1, WT1 RMF peptide/HLA-A0201 complex …
# Experiment: ELISA as in Example 3; biotinylated peptide/HLA complex coated at 50 nM on Neutravidin plates, IgG titrated, AP-conjugated goat anti-human IgG, RFU
row,EC50 (read off the curve),Binder
1,~0.3 nM,B1
2,~0.3 nM,B2

# Target: T2, WT1 RMF peptide/HLA-A0201 complex …
# Experiment: as above
row,EC50 (read off the curve),Binder
1,~0.3 nM,B3
2,~0.3 nM,B4
3,~0.3 nM,B5
4,~0.5 nM,B6

# Target: T3, PIGQ peptide/HLA-A0201 complex
# Experiment: ELISA on Neutravidin plates, Fab; '---' = no binding
row,binding result,Binder
1,no binding,B7
2,no binding,B8
3,no binding,B9
4,no binding,B10

# Target: T2, WT1 RMF peptide/HLA-A0201 complex …
# Experiment: ELISA on Neutravidin plates, Fab; '++' = EC50 below 10 nM, '+' = EC50 of more than 10 nM
row,EC50,Binder
1,< 10 nM,B7
2,< 10 nM,B8
3,> 10 nM,B9
4,< 10 nM,B10

# Target: T4, RMF/HLA complex on antigen-positive …
# Experiment: flow cytometry on BV173 cells, IgG; '++' = EC50 below 10 nM, '+' = EC50 of more than 10 nM
# Protocol: as §1, §2
row,EC50,Binder
1,> 10 nM,B1
2,> 10 nM,B3
3,> 10 nM,B4
4,> 10 nM,B5
5,> 10 nM,B6
6,> 10 nM,B2

# Target: T1, WT1 RMF peptide/HLA-A0201 complex …
# Experiment: ELISA on Neutravidin plates, IgG; '++' = EC50 below 10 nM, '+' = EC50 of more than 10 nM
row,EC50,Binder
1,< 10 nM,B1
2,< 10 nM,B2

# Target: T2, WT1 RMF peptide/HLA-A0201 complex …
# Experiment: as above
row,EC50,Binder
1,< 10 nM,B3
2,< 10 nM,B4
3,< 10 nM,B5
4,< 10 nM,B6
